Measurements as given in IntAct's records for PubMed 17003044.

B1: BAR/IMD domain-containing adapter protein 2 (Homo sapiens), Q9UQB8 (parent)
chain: MSLSRSEEMHRLTENVYKTIMEQFNPSLRNFIAMGKNYEKALAGVTYAAKGYFDALVKMGELASESQGSKELGDVLFQMAEVHRQIQNQLEEMLKSFHNELLTQLEQKVELDSRYLSAALKKYQTEQRSKGDALDKCQAELKKLRKKSQGSKNPQKYSDKELQYIDAISNKQGELENYVSDGYKTALTEERRRFCFLVEKQCAVAKNSAAYHSKGKELLAQKLPLWQQACADPSKIPERAVQLMQQVASNGATLPSALSASKSNLVISDPIPGAKPLPVPPELAPFVGRMSAQESTPIMNGVTGPDGEDYSPWADRKAAQPKSLSPPQSQSKLSDSYSNTLPVRKSVTPKNSYATTENKTLPRSSSMAAGLERNGRMRVKAIFSHAAGDNSTLLSFKEGDLITLLVPEARDGWHYGESEKTKMRGWFPFSYTRVLDSDGSDRLHMSLQQGKSSSTGNLLDKDDLAIPPPDYGAASRAFPAQTASGFKQRPYSVAVPAFSQGLDDYGARSMSRNPFAHVQLKPTVTNDRCDLSAQGPEGREHGDGSARTLAGR

Variants of: B1
Settings: with rac1_human RAC1, P63000

Row | Variant | effect of a mutation on the interaction
1 | MSLSRSEEMHRLTENVYKTIMEEFNPSLRNFIAMGKNYEKALAGVTYAAKGYFDALVKMGELASESQGSKELGDVLFQMAEVHRQIQNQLEEMLKSFHNELLTQLEQKVELDSRYLSAALKKYQTEQRSKGDALDKCQAELKKLRKKSQGSKNPQKYSDKELQYIDAISNKQGELENYVSDGYKTALTEERRRFCFLVEKQCAVAKNSAAYHSKGKELLAQKLPLWQQACADPSKIPERAVQLMQQVASNGATLPSALSASKSNLVISDPIPGAKPLPVPPELAPFVGRMSAQESTPIMNGVTGPDGEDYSPWADRKAAQPKSLSPPQSQSKLSDSYSNTLPVRKSVTPKNSYATTENKTLPRSSSMAAGLERNGRMRVKAIFSHAAGDNSTLLSFKEGDLITLLVPEARDGWHYGESEKTKMRGWFPFSYTRVLDSDGSDRLHMSLQQGKSSSTGNLLDKDDLAIPPPDYGAASRAFPAQTASGFKQRPYSVAVPAFSQGLDDYGARSMSRNPFAHVQLKPTVTNDRCDLSAQGPEGREHGDGSARTLAGR [Q23E] | decreasing interaction strength
2 | MSLSRSEEMHRLTENVYKTIMEQFNPSLRNFIAMGKNYEKALAGVTYAAKGYFDALVKMGELASESQGSKELGDVLFQMAEVHRQIQNQLEEMLKSFHNELLTQLEQKVELDSRYLSAALKKYQTEQRSKGDALDKCQAELKELRKESQGSKNPQKYSDKELQYIDAISNKQGELENYVSDGYKTALTEERRRFCFLVEKQCAVAKNSAAYHSKGKELLAQKLPLWQQACADPSKIPERAVQLMQQVASNGATLPSALSASKSNLVISDPIPGAKPLPVPPELAPFVGRMSAQESTPIMNGVTGPDGEDYSPWADRKAAQPKSLSPPQSQSKLSDSYSNTLPVRKSVTPKNSYATTENKTLPRSSSMAAGLERNGRMRVKAIFSHAAGDNSTLLSFKEGDLITLLVPEARDGWHYGESEKTKMRGWFPFSYTRVLDSDGSDRLHMSLQQGKSSSTGNLLDKDDLAIPPPDYGAASRAFPAQTASGFKQRPYSVAVPAFSQGLDDYGARSMSRNPFAHVQLKPTVTNDRCDLSAQGPEGREHGDGSARTLAGR [K143E;K147E] | decreasing interaction strength
3 | MSLSRSEEMHRLTENVYKTIMEQFNPSLRNFIAMGKNYEKALAGVTYAAKGYFDALVKMGELASESQGSKELGDVLFQMAEVHRQIQNQLEEMLKSFHNELLTQLEQKVELDSRYLSAALKKYQTEQRSKGDALDKCQAELAALAAASQGSKNPQKYSDKELQYIDAISNKQGELENYVSDGYKTALTEERRRFCFLVEKQCAVAKNSAAYHSKGKELLAQKLPLWQQACADPSKIPERAVQLMQQVASNGATLPSALSASKSNLVISDPIPGAKPLPVPPELAPFVGRMSAQESTPIMNGVTGPDGEDYSPWADRKAAQPKSLSPPQSQSKLSDSYSNTLPVRKSVTPKNSYATTENKTLPRSSSMAAGLERNGRMRVKAIFSHAAGDNSTLLSFKEGDLITLLVPEARDGWHYGESEKTKMRGWFPFSYTRVLDSDGSDRLHMSLQQGKSSSTGNLLDKDDLAIPPPDYGAASRAFPAQTASGFKQRPYSVAVPAFSQGLDDYGARSMSRNPFAHVQLKPTVTNDRCDLSAQGPEGREHGDGSARTLAGR [K142A;K143A;R145A;K146A;K147A] | decreasing interaction strength
4 | MSLSRSEEMHELTENVYKTIMEEFNPSLRNFIAMGKNYEKALAGVTYAAKGYFDALVKMGELASESQGSKELGDVLFQMAEVHRQIQNQLEEMLKSFHNELLTQLEQKVELDSRYLSAALKKYQTEQRSKGDALDKCQAELKKLRKKSQGSKNPQKYSDKELQYIDAISNKQGELENYVSDGYKTALTEERRRFCFLVEKQCAVAKNSAAYHSKGKELLAQKLPLWQQACADPSKIPERAVQLMQQVASNGATLPSALSASKSNLVISDPIPGAKPLPVPPELAPFVGRMSAQESTPIMNGVTGPDGEDYSPWADRKAAQPKSLSPPQSQSKLSDSYSNTLPVRKSVTPKNSYATTENKTLPRSSSMAAGLERNGRMRVKAIFSHAAGDNSTLLSFKEGDLITLLVPEARDGWHYGESEKTKMRGWFPFSYTRVLDSDGSDRLHMSLQQGKSSSTGNLLDKDDLAIPPPDYGAASRAFPAQTASGFKQRPYSVAVPAFSQGLDDYGARSMSRNPFAHVQLKPTVTNDRCDLSAQGPEGREHGDGSARTLAGR [R11E;Q23E] | decreasing interaction strength
5 | MSLSRSEEMHRLTENVYKTIMEQFNPSLRNFIAMGKNYEKALAGVTYAAKGYFDALVKMGELASESQGSKELGDVLFQMAEVHRQIQNQLEEMLKSFHNELLTQLEQKVELDSRYLSAALKKYQTEQRSKGDALDKCQAELKELRKKSQGSKNPQKYSDKELQYIDAISNKQGELENYVSDGYKTALTEERRRFCFLVEKQCAVAKNSAAYHSKGKELLAQKLPLWQQACADPSKIPERAVQLMQQVASNGATLPSALSASKSNLVISDPIPGAKPLPVPPELAPFVGRMSAQESTPIMNGVTGPDGEDYSPWADRKAAQPKSLSPPQSQSKLSDSYSNTLPVRKSVTPKNSYATTENKTLPRSSSMAAGLERNGRMRVKAIFSHAAGDNSTLLSFKEGDLITLLVPEARDGWHYGESEKTKMRGWFPFSYTRVLDSDGSDRLHMSLQQGKSSSTGNLLDKDDLAIPPPDYGAASRAFPAQTASGFKQRPYSVAVPAFSQGLDDYGARSMSRNPFAHVQLKPTVTNDRCDLSAQGPEGREHGDGSARTLAGR [K143E] | decreasing interaction strength
